Data on two proteins can be found in patent US20060018896.

In this data set the target is purified human C4, P0C0L4.
Chain of purified human C4, P0C0L4 (P0C0L4 whole entry, looked up): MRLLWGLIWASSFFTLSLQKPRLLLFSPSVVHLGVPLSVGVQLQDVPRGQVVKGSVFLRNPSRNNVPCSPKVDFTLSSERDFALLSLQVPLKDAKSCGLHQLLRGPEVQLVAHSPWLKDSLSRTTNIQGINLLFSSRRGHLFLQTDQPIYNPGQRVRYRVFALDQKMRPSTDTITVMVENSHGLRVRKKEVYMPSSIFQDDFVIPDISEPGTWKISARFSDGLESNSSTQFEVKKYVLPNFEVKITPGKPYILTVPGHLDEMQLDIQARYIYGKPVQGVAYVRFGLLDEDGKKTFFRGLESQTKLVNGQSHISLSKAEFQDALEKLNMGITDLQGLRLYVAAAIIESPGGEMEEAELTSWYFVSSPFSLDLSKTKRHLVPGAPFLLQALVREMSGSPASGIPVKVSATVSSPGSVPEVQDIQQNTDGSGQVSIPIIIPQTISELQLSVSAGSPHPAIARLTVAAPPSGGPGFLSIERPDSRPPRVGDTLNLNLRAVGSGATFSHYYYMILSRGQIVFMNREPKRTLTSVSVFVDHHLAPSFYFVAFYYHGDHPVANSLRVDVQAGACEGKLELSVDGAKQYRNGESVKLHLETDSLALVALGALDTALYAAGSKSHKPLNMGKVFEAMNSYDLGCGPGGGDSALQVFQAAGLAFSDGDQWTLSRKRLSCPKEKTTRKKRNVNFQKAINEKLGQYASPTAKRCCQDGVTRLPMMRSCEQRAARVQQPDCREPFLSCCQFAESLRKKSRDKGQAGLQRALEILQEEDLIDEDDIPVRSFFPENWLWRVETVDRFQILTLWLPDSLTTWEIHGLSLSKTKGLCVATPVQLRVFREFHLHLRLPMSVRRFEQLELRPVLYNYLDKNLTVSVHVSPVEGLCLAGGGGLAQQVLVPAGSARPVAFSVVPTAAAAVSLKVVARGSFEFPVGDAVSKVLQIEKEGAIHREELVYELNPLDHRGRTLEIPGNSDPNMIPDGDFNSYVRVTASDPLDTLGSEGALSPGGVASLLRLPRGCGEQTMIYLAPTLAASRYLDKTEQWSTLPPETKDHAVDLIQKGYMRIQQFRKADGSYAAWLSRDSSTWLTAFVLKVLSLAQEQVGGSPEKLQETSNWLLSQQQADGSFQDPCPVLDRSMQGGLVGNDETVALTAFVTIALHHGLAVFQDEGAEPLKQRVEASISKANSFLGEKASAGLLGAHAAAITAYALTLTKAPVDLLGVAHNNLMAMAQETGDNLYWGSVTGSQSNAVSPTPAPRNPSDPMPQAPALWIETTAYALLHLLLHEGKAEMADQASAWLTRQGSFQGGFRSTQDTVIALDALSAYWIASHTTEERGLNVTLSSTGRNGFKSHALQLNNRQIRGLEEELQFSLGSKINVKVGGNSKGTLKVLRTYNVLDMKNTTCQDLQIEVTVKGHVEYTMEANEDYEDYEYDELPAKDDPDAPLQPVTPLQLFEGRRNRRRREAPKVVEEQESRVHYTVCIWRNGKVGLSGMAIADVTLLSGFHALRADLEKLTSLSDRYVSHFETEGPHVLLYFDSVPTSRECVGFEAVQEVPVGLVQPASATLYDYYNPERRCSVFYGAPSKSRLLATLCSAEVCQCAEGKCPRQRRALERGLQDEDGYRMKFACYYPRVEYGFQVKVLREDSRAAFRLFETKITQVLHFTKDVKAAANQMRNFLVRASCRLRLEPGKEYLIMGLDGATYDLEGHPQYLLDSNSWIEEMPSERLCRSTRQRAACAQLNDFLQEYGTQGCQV

B1: functionally active murine recombinant MASP-2 protein (protein)
chain: SKWPEPVFGRLVSPGFPEKYADHQDRSWTLTAPPGYRLRLYFTHFDLELSYRCEYDFVKLSSGTKVLATLCGQESTDTEQAPGNDTFYSLGPSLKVTFHSDYSNEKPFTGFEAFYAAEDVDECRVSLGDSVPCDHYCHNYLGGYYCSCRAGYVLHQNKHTCSALCSGQVFTGKSGYLSSPEYPQPYPKLSSCTYSIRLEDGFSVILDFVESFDVETHPEAQCPYDSLKIQTDKGEHGPFCGKTLPPRIETDSHKVTITFATDESGNHTGWKIHYTSTARPCPDPTAPPNGSISPVQAIYVLKDRFYVFCKTGFELLQGSVPLKSFTAVCQKDGSWDRPMPECS
In the case of B1, the “lectin pathway-dependent C4 activation (C4 cleavage assay, C4b deposition on mannan) in pooled MASP-2-/- mouse serum” value is recorded as “restored lectin pathway-dependent C4 activation in a protein concentration dependent manner”.

B2: catalytically inactive murine MASP-2A recombinant protein (protein)
chain: SKWPEPVFGRLVSPGFPEKYADHQDRSWTLTAPPGYRLRLYFTHFDLELSYRCEYDFVKLSSGTKVLATLCGQESTDTEQAPGNDTFYSLGPSLKVTFHSDYSNEKPFTGFEAFYAAEDVDECRVSLGDSVPCDHYCHNYLGGYYCSCRAGYVLHQNKHTCSALCSGQVFTGKSGYLSSPEYPQPYPKLSSCTYSIRLEDGFSVILDFVESFDVETHPEAQCPYDSLKIQTDKGEHGPFCGKTLPPRIETDSHKVTITFATDESGNHTGWKIHYTSTARPCPDPTAPPNGSISPVQAIYVLKDRFYVFCKTGFELLQGSVPLKSFTAVCQKDGSWDRPMPECS
With B2, the “lectin pathway-dependent C4 activation (C4 cleavage assay, C4b deposition on mannan) in pooled MASP-2-/- mouse serum” value is recorded as “did not restore C4 activation”.
